Earlier results on one substance are cited in article PMC2847397.

The target of this series is Asp408 (UniProt position 408, GLLVDDAIVVV). Put plainly: chemical modification.

Regarding “Multidrug efflux pump subunit AcrB (RND transporter) (Escherichia coli)”, the pKa is recorded as 7.4.

As a reminder, the pKa is the negative logarithm of the acid dissociation constant.
